Measurements as given in US20120077731A1 (Ablynx, published 2012).
Values joined by “and” are separate entries in the source; they are usually repeats but may differ in a detail not shown here. Equal entries are not always repeated.

B1: IL6R13 (VHH)
VHH: EVQLVESGGGLVQPGGSLRLSCAASGFTFDDYGMSWVRQAPGRATEWVSAISWNGNNTYYTESMKGRFTISRDNAKNTVYLQMNSLKPEDTAVYYCVKGSTAIVGVPPTYPDEYDYWGQGTQVTVSS
notes: also called PMP35H4; not shown: C-terminal c-myc and (His)6 tags
B2: IL6R65 (VHH)
VHH: EVQLVESGGGLVQPGGSLRLSCAASGSIFKVNAMGWYRQAPGKGRELVAGIISGGSTNYADSVKGRFTISRDNAKNTLYLQMNSLRPEDTAVYYCAFVTTNSDYDLGRDYWGQGTLVTVSS
notes: also called ILR65; parent Nanobody
B3: Cyno IL-6R (receptor, cynomolgus monkey)
chain: EVARGVLTSLPGDSVTLTCPGGEPEDNATVHWVLRKPAEGSHLSRWAGVGRRLLLRSVQLHDSGNYSCYRAGRPAGTVHLLVDVPPEEPQLSCFRKSPLSNVVCEWGPRSTPSPTTKAVLLVRKFQNSPAEDFQEPCQYSQESQKFSCQLAVPEGDSSFYIVSMCVASSVGSKLSKTQTFQGCGILQPDPPANITVTAVARNPRWLSVTWQDPHSWNSSFYRLRFELRYRAERSKTFTTWMVKDLQHHCVIHDAWSGLRHVVQLRAQEEFGQGEWSEWSPEAMGTPWTESRSPPAENEVSTPTQAPTTNKDDDNILSGDSANATSLPVQDSSSVPLP
notes: also called cynomolgus monkey IL-6R; recombinant cyno sIL-6R

Legend:
Human soluble IL-6R [1] = biological target: T1, Human soluble IL-6R (human, UniProt P08887 20-358); experiment: Alphascreen, 100 nM Nanobody, 0.4 nM bio-IL-6R; competitor: reference Fab
T1 construct: Soluble recombinant form; biotinylated in some assays; also called hIL-6R; human IL-6R
T1 sequence (looked up): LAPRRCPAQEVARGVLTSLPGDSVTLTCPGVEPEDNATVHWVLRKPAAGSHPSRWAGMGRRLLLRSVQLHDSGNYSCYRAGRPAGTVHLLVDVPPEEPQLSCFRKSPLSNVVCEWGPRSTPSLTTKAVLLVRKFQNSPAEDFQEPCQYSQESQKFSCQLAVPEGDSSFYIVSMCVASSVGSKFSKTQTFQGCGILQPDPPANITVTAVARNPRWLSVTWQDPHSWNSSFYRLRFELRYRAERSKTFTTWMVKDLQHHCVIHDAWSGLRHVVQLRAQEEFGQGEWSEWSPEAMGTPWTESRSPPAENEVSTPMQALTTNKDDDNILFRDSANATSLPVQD

Human soluble IL-6R [2] = biological target: T1, Human soluble IL-6R; experiment: Alphascreen IL-6/IL-6R competition (IL-6R 0.3 nM, bio-IL-6 3 nM); row EC50 of the fit table, axis [competitor], M; blocked ligand IL-6
Human soluble IL-6R [3] = biological target: T1, Human soluble IL-6R; experiment: SPR Biacore 3000, IL-6R amine-coupled to CM5
Description: (§1) Nanobodies were injected at 5 different concentrations between 1 and 50 nM. Flow rate was 45 μl/min in all experiments. Association and dissociation phase were 3 and 10 min, respectively. The chip was regenerated using Glycine/HCl pH 1.5.

[4] = biological target: T2, Human membrane IL-6R on cells (human, UniProt P08887 20-468); experiment: cell-based or functional assay
T2 sequence (looked up): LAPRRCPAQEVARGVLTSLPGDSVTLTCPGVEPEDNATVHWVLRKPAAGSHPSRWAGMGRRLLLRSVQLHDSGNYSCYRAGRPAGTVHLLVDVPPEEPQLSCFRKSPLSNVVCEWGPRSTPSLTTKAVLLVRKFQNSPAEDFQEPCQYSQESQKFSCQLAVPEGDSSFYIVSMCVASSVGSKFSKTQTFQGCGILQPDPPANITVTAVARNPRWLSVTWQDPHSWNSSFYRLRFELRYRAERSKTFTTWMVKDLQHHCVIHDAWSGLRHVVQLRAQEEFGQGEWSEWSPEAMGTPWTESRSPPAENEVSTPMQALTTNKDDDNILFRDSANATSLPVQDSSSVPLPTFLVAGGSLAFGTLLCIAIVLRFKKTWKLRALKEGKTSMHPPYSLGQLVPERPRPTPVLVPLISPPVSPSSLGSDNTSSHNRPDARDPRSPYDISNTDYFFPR

Mouse IL-6R = biological target: T3, Mouse IL-6R (mouse, UniProt P22272 20-364, limits assumed); experiment: ELISA: plate coated with 1 µg/ml mouse IL-6R, 500 nM Nanobody, anti-myc + anti-mouse-HRP
T3 construct: also called mouse sIL-6R
T3 sequence (looked up): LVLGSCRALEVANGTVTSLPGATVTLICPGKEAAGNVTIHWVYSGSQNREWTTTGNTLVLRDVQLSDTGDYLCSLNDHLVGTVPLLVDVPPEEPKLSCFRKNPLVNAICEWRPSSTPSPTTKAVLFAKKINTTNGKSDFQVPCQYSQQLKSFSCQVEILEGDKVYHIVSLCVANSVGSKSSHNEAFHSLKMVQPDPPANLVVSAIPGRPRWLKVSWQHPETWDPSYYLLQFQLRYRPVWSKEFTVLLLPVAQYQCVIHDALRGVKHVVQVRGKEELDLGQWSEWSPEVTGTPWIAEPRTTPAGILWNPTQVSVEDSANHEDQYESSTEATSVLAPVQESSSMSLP
Description: Detection was performed with anti-myc and anti-mouse-HRP as first and second antibody respectively.

Human soluble IL-6R [5] = biological target: T1, Human soluble IL-6R; experiment: Alphascreen IL-6/IL-6R competition with purified Nanobody; row EC50 of the table, axis [inhibitor], M; blocked ligand IL-6
Human soluble IL-6R [6] = biological target: T1, Human soluble IL-6R; experiment: Biacore off-rate, periplasmic extract
Human soluble IL-6R [7] = biological target: T1, Human soluble IL-6R; experiment: Biacore, binding to IL-6R (parent value)
Human soluble IL-6R [8] = biological target: T1, Human soluble IL-6R; experiment: competition for IL-6R, competitor reference Fab, summary table C-13
[9] = biological target: T2, Human membrane IL-6R on cells; experiment: cell-based or functional assay; remark: listed apart in the source
Human soluble IL-6R [10] = biological target: T1, Human soluble IL-6R; experiment: summary table C-13 of Nanobody characteristics, Kd on IL-6R
Description: as §1

[11] = biological target: T2, Human membrane IL-6R on cells; experiment: cell-based or functional assay; remark: listed apart in the source
Human soluble IL-6R [12] = biological target: T1, Human soluble IL-6R; experiment: Biacore off-rate, periplasmic extracts
Human soluble IL-6R [13] = biological target: T1, Human soluble IL-6R; experiment: inhibition of the IL-6/IL-6R interaction, summary table C-13
Description: (§2) Finally streptavidin donor beads were added and after 1 hour incubator the plate was read on the Envision microplate reader.

[14] = biological target: T2, Human membrane IL-6R on cells; experiment: cell-based or functional assay; remark: listed apart in the source
Human soluble IL-6R [15] = biological target: T1, Human soluble IL-6R; experiment: Alphascreen, inhibition of bio-IL-6 binding to IL-6R
Description: as §2

Cyno plasma sIL-6R [16] = biological target: T4, Cyno plasma sIL-6R (cynomolgus monkey, UniProt A0A2K5WN54 60-396); experiment: plasma potency ELISA, cyno plasma + human IL-6 50 ng/mL; sIL-6R captured on BN-12, bound IL-6 detected; blocked ligand IL-6
T4 construct: also called cynomolgus sIL-6R
T4 sequence: B3 chain

Cyno IL-6R = biological target: B3; experiment: SPR Biacore 3000, cyno IL-6R amine-coupled to CM5
Description: Remaining reactive groups were inactivated. […] Each sample was injected for 4 min at a flow rate of 45 μl/min to allow for binding to chip-bound antigen. Next, binding buffer without Nanobody was sent over the chip at the same flow rate to allow for dissociation of bound Nanobody.

Human soluble IL-6R [17] = biological target: T1, Human soluble IL-6R; experiment: SPR Biacore 3000, human IL-6R amine-coupled to CM5
Description: Remaining reactive groups were inactivated. Nanobody binding was assessed at various concentrations ranging from 0.5 to 50 nM. Each sample was injected for 4 min at a flow rate of 45 μl/min to allow for binding to chip-bound antigen. Next, binding buffer without Nanobody was sent over the chip at the same flow rate to allow for dissociation of bound Nanobody.

Cyno plasma sIL-6R [18] = biological target: T4, Cyno plasma sIL-6R; experiment: plasma potency assay, cyno plasma ([IL6R]: ~0.4 nM, [IL6]: 2.4 nM printed); sIL-6R captured on BN-12, bound IL-6 detected; blocked ligand IL-6
Human plasma sIL-6R [19] = biological target: T5, Human plasma sIL-6R (human, UniProt P08887 20-355, limits assumed); experiment: plasma potency assay, human plasma, 2.4 nM IL6; blocked ligand IL-6
T5 construct: also called plasma-derived human IL-6R
T5 sequence (looked up): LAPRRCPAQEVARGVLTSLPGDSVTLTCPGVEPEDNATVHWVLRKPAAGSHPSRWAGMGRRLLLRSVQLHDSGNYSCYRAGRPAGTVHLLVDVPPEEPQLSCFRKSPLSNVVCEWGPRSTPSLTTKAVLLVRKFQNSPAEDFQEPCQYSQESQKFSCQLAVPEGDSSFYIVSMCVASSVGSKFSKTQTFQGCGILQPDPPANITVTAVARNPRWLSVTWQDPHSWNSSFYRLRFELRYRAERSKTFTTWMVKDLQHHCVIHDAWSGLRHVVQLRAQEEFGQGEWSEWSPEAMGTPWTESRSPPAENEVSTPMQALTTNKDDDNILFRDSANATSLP
Description: (§3) All 5 affinity matured Nanobodies and the sequence optimized Nanobody were also tested in a plasma potency assay. […] TMB was used as substrate.

Human soluble IL-6R [20] = biological target: T1, Human soluble IL-6R; experiment: SPR (Biacore), binding curves at several concentrations of purified Nanobody on IL-6R
Human soluble IL-6R [21] = biological target: T1, Human soluble IL-6R; experiment: Biacore T100
Human plasma sIL-6R [22] = biological target: T5, Human plasma sIL-6R; experiment: plasma potency assay, human plasma ([IL6R]: ~0.4 nM, [IL6]: 2.4 nM printed); sIL-6R captured on BN-12, bound IL-6 detected; blocked ligand IL-6
Human plasma sIL-6R [23] = biological target: T5, Human plasma sIL-6R; experiment: plasma potency assay, human plasma, 42 nM IL6; sIL-6R captured on BN-12, bound IL-6 detected; blocked ligand IL-6
Cyno plasma sIL-6R [24] = biological target: T4, Cyno plasma sIL-6R; experiment: plasma potency assay, cyno plasma, 2.4 nM IL6; blocked ligand IL-6
Description: as §3

Human plasma sIL-6R [25] = biological target: T5, Human plasma sIL-6R; experiment: plasma potency ELISA, human plasma, IL-6 at EC50 (50 ng/mL)
Human plasma sIL-6R [26] = biological target: T5, Human plasma sIL-6R; experiment: plasma potency ELISA, human plasma, IL-6 at EC95 (885 ng/mL)
Human soluble IL-6R [27] = biological target: T1, Human soluble IL-6R; experiment: Biacore T100, IL-6R captured via mAb BN-12
Human plasma sIL-6R [28] = biological target: T5, Human plasma sIL-6R; experiment: plasma potency ELISA, human plasma + human IL-6 50 ng/mL; sIL-6R captured on BN-12, bound IL-6 detected; blocked ligand IL-6
Human soluble IL-6R [29] = biological target: T1, Human soluble IL-6R; experiment: Biacore T100, IL-6R covalently coupled
Human plasma sIL-6R [30] = biological target: T5, Human plasma sIL-6R; experiment: plasma potency assay, human plasma, 42 nM IL6; blocked ligand IL-6
Description: as §3

PMP20A11 = biological target: T6, PMP20A11; experiment: competition ELISA: IL6R20A11 (0.4 nM) pre-incubated with a series of recombinant sIL-6R; free IL6R20A11 captured on biotinylated human sIL-6R on neutravidin
T6 construct: also called IL6R20A11; IL6R300; not shown: c-myc and (His)6 tags

## B1
Human soluble IL-6R [1]
  Residual reference-Fab binding to IL-6R (%): 25%
Human soluble IL-6R [2]
  IC50: 0.0644 nM
Human soluble IL-6R [3]
  Kd: 0.5 nM and 0.8 nM
  koff: 0.000121 s⁻¹ and 0.000109 s⁻¹ and 0.000178 s⁻¹
  kon: 231000 M⁻¹ s⁻¹ and 137000 M⁻¹ s⁻¹
[4]
  IC50 values (nM), XG-1 assay: 1.4 nM
Mouse IL-6R
  binding result: no binding (tested: 500 nM)
Human soluble IL-6R [5]
  IC50: 0.0505 nM
Human soluble IL-6R [6]
  koff: 0.000178 s⁻¹
Human soluble IL-6R [7]
  Kd: 0.7 nM
Human soluble IL-6R [8]
  Ref Fab competition (%): 25%
[9]
  IC50 (nM), TF1 cell proliferation: 5.2 nM
Human soluble IL-6R [10]
  Kd: 0.5 nM
[11]
  IC50 (nM) + HSA, XG-1 cell proliferation: 1.3 nM
  IC50 (nM), XG-1 cell proliferation: 1.4 nM
Human soluble IL-6R [12]
  koff: 0.00021 s⁻¹
Human soluble IL-6R [13]
  IC50: 0.05 nM
[14]
  IC50 (nM) XG-1: 1.4 nM
Human soluble IL-6R [15]
  IC50: 0.0477 nM

## B2
Cyno plasma sIL-6R [16]
  IC50 (read off the curve): ~0.1 nM
Cyno IL-6R
  Kd: 12 nM
  koff: 0.00197 s⁻¹
  kon: 165000 M⁻¹ s⁻¹
Human soluble IL-6R [17]
  Kd: 4 nM
  koff: 0.00235 s⁻¹
  kon: 600000 M⁻¹ s⁻¹
[4]
  IC50 values (nM), XG-1 assay: 26 nM
Cyno plasma sIL-6R [18]
  IC50: 2.99 nM
Human plasma sIL-6R [19]
  IC50: 1.9 nM
Human soluble IL-6R [5]
  IC50: 0.147 nM
Human soluble IL-6R [20]
  Kd: 4.3 nM
Human soluble IL-6R [21]
  Kd: 3.8 nM
Human plasma sIL-6R [22]
  IC50: 4.93 nM
Human plasma sIL-6R [23]
  IC50: 61.5 nM
Cyno plasma sIL-6R [24]
  IC50: 0.9 nM
Human plasma sIL-6R [25]
  IC50: 2.61 nM
Human plasma sIL-6R [26]
  IC50: 66.2 nM
Human soluble IL-6R [27]
  kon: 1e+06 M⁻¹ s⁻¹
Human plasma sIL-6R [28]
  IC50 (read off the curve): ~0.7 nM
Human soluble IL-6R [29]
  koff: 0.0038 s⁻¹
Human plasma sIL-6R [30]
  IC50: 24.8 nM

## B3
PMP20A11
  IC50 (read off the curve): ~3 ng/mL
